Measured values reported in article PMC3273806 (Nucleic Acids Research, 2011).
Values belong to the binder of their own block, whether it stands above or below them.

Key:
[1] = molecular target: human RAD18, wild type, His-tagged or FLAG-tagged (human, UniProt Q9NS91 1-495); assay: pull-down
[2] = molecular target: human RAD6A (human, UniProt P49459 1-152); assay: pull-down

binding result [1]: binds
B1: RAD18^ΔC1 (residues 1-341), His-tagged or FLAG-tagged (domain or fragment)
chain: MDSLAESRWPPGLAVMKTIDDLLRCGICFEYFNIAMIIPQCSHNYCSLCIRKFLSYKTQCPTCCVTVTEPDLKNNRILDELVKSLNFARNHLLQFALESPAKSPASSSSKNLAVKVYTPVASRQSLKQGSRLMDNFLIREMSGSTSELLIKENKSKFSPQKEASPAAKTKETRSVEEIAPDPSEAKRPEPPSTSTLKQVTKVDCPVCGVNIPESHINKHLDSCLSREEKKESLRSSVHKRKPLPKTVYNLLSDRDLKKKLKEHGLSIQGNKQQLIKRHQEFVHMYNAQCDALHPKSAAEIVREIENIEKTRMRLEASKLNESVMVFTKDQTEKEIDEIHSK

binding result [2]: binds
B2: ^HisRAD18^ΔN1 (residues 113-495) (domain or fragment)
chain: AVKVYTPVASRQSLKQGSRLMDNFLIREMSGSTSELLIKENKSKFSPQKEASPAAKTKETRSVEEIAPDPSEAKRPEPPSTSTLKQVTKVDCPVCGVNIPESHINKHLDSCLSREEKKESLRSSVHKRKPLPKTVYNLLSDRDLKKKLKEHGLSIQGNKQQLIKRHQEFVHMYNAQCDALHPKSAAEIVREIENIEKTRMRLEASKLNESVMVFTKDQTEKEIDEIHSKYRKKHKSEFQLLVDQARKGYKKIAGMSQKTVTITKEDESTEKLSSVCMGQEDNMTSVTNHFSQSKLDSPEELEPDREEDSSSCIDIQEVLSSSESDSCNSSSSDIIRDLLEEEEAWEASHKNDLQDTEISPRQNRRTRAAESAEIEPRNKRNRN
